Values quoted from earlier work, collected in patent publication US6645518B2, “Uses for medical devices having a lubricious, nitric oxide-releasing coating” (priority 1998, dated 2003).

Test system: clinical restenosis
Conditions: after balloon angioplasty, systemic administration, six month follow-up

B1: c7E3: potent anti-platelet agent, GPIIb/IIIa antibody, FDA-approved for use after balloon angioplasty (antibody, chains of the INN, looked up, V domains shown)
VH: EVQLQQSGTVLARPGASVKMSCEASGYTFTNYWMHWVKQRPGQGLEWIGAIYPGNSDTSYIQKFKGKAKLTAVTSTTSVYMELSSLTNEDSAVYYCTLYDGYYVFAYWGQGTLVTVSA
VL: EIVLTQSPVTLSVTPGDSVSLSCRASRDISNNLHWFQQTSHESPRLLIKYASQSMSGIPSRFSGSGSGTDFTLSINSVETEDFGMYFCQQTNSWPYTFGGGTKLEIK
For B1, the “reduction of clinical restenosis” value is given as 20-30%.
